The record followed here is patent US6346611.

The assay addresses human transforming growth factor β2 (TGFβ2) (human) (UniProt P61812). Put plainly: cell-based or functional assay.

human transforming growth factor β2 (TGFβ2) (human), sequence (P61812 303-414 limits assumed): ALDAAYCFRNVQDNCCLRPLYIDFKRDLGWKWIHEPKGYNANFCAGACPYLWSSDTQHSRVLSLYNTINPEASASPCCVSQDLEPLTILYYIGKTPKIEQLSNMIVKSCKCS

As to latency-associated protein (LAP), the Ki, reversal of TGFβ2-mediated inhibition of 3H-thymidine incorporation in mink lung epithelial cells came to 0.5 nM.
